This data set addresses T1, SrbA bHLHZ (Aspergillus fumigatus, UniProt Q4WIN1 161-267).
T1 sequence: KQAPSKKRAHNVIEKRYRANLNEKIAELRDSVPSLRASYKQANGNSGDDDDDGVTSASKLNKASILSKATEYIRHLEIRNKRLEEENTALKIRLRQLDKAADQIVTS
Nature of the data set: SPR; apparent Kd; Rmax 197.6, two homodimers proposed; SPR on immobilised biotinylated duplexes, 1:1 model with mass transport; buffer, salt, pH and temperature not stated (protocols of refs 19, 54). To be noted: protein: recombinant; chain copies: 2; label: 5' biotin on strand 1; blunt.

B1: SRE1+SRE2 (cyp51Ap-320-32) (dsDNA)
DNA 1: AGAATCACGCGGTCCGGATGTGTGCTGAGCCG
DNA 2: CGGCTCAGCACACATCCGGACCGCGTGATTCT
With B1, the Kd came to 22 nM.

The values are drawn from PMC4954732, “Sterol Biosynthesis and Azole Tolerance Is Governed by the Opposing Actions of SrbA and the CCAAT Binding Complex”.
